Where two headings read alike, the source gives them in different places.
Experiments:
[1] = biological target: Ago2 (guide-loaded) (human) (UniProt Q9UKV8); assay: EMSA
[2] = biological target: Ago2 (guide-loaded) (human) (UniProt Q9UKV8); assay: koff measurement

Ago2 (guide-loaded) (human), sequence (Q9UKV8 whole entry): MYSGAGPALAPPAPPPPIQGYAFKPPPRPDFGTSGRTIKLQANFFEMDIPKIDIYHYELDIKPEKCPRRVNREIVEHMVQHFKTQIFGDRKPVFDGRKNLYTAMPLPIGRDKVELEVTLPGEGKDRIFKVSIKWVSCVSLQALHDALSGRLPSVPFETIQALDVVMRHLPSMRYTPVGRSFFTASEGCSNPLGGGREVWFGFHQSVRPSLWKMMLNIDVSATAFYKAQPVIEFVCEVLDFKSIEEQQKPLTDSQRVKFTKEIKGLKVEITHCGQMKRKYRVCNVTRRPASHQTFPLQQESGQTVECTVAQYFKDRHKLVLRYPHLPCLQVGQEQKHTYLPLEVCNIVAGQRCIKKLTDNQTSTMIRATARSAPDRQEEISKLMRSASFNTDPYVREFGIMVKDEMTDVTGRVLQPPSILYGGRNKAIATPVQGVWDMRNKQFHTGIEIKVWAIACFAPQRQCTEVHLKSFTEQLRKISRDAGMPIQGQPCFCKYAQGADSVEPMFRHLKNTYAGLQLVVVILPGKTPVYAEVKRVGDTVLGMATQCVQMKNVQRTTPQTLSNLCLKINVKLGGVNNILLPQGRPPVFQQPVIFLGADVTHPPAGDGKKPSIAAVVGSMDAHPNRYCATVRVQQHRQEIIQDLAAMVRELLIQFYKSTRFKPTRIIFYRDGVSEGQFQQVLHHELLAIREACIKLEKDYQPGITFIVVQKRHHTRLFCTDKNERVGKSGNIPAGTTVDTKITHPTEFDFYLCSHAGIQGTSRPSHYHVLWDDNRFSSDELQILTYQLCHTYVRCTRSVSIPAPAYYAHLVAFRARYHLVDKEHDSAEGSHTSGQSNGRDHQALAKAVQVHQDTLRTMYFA

HCV 5' UTR deltaSL1 + miR-122 guide gave a Kd [1] of 0.058 nM.

Work on Site-1 WT + miR-122 guide yielded a binding signal (relative koff (reference)) [2] of 1.

In the case of “Site-1 deltaSL1 (A4 bridge) + miR-122 guide”, the koff fold change (fold slower koff than Site-1 WT) [2] is reported as 6.

For Site-1 t9 abasic + miR-122 guide, the koff fold change (fold slower koff than Site-1 WT) ([2]; abasic nucleotide at t9 (G21)) was 3.
